Experiment [1] has as its target T1, PureCol native bovine dermal collagen type I (bovine, UniProt P02453 162-1217; P02465 80-1117).
T1 construct: collagen α1(I) chain, bovine (Bos taurus), from dermis; collagen α2(I) chain, bovine; Native triple helix; Prolines are in part hydroxylated in the tissue protein; also called Col I; native Col I; source: bought: Advanced Biomatrix (PureCol, 3 mg/ml)
Briefly: ELISA; solid-phase assay: plates coated with 10 μg/ml native or denatured Col I, blocked with 2% BSA; biotinylated fibrinogen in 0.5% BSA in Ca2+- and Mg2+-free PBS pH 7.4, 2 h at 37°C; avidin-alkaline phosphatase. To be noted: both partners purified. Background: In an ELISA, binding on a coated surface is turned into a signal by an enzyme label.

Experiment [2] addresses T1, PureCol native bovine dermal collagen …. Briefly: SPR; Col I (PureCol bovine dermal and mouse-tail tendon) coupled to a BiaCore C1 chip; freshly dissolved, filtered fibrinogen in PBS passed over the chip, then wash-out. To be noted: both partners purified. On the technique in general: SPR reads the build-up and loss of mass on a sensor chip optically.

T1 sequence (P02453 162-1217, chain 1 of 2): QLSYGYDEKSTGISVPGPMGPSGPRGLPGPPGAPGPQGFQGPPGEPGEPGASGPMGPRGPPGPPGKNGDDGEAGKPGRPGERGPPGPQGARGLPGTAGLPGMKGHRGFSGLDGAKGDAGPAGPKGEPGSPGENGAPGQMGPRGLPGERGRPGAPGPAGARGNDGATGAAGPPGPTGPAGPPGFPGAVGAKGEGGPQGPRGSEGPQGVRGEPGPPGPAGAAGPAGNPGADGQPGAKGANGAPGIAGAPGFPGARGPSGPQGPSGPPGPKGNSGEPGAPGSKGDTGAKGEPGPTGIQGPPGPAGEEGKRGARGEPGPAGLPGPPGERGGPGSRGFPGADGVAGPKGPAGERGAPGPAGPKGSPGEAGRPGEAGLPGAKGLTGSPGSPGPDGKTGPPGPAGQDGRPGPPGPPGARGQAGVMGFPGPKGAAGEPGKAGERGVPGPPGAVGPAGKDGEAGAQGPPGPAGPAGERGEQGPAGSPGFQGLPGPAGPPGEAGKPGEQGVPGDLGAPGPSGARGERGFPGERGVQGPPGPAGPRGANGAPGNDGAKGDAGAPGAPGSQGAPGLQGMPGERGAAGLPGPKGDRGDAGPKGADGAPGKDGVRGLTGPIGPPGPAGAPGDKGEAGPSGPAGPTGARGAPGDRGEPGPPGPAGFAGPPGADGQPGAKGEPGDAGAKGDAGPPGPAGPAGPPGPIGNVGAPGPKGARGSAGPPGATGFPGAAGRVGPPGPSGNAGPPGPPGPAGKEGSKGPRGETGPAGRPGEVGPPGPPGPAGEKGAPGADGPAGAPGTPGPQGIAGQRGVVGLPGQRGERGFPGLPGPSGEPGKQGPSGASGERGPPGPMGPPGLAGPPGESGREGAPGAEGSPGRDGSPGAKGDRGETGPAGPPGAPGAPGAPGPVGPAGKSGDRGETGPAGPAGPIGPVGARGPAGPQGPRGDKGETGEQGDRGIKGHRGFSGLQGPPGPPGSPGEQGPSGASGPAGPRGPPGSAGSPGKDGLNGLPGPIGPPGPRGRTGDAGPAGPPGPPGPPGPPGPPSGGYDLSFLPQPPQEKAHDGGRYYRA
T1 sequence (P02465 80-1117, chain 2 of 2): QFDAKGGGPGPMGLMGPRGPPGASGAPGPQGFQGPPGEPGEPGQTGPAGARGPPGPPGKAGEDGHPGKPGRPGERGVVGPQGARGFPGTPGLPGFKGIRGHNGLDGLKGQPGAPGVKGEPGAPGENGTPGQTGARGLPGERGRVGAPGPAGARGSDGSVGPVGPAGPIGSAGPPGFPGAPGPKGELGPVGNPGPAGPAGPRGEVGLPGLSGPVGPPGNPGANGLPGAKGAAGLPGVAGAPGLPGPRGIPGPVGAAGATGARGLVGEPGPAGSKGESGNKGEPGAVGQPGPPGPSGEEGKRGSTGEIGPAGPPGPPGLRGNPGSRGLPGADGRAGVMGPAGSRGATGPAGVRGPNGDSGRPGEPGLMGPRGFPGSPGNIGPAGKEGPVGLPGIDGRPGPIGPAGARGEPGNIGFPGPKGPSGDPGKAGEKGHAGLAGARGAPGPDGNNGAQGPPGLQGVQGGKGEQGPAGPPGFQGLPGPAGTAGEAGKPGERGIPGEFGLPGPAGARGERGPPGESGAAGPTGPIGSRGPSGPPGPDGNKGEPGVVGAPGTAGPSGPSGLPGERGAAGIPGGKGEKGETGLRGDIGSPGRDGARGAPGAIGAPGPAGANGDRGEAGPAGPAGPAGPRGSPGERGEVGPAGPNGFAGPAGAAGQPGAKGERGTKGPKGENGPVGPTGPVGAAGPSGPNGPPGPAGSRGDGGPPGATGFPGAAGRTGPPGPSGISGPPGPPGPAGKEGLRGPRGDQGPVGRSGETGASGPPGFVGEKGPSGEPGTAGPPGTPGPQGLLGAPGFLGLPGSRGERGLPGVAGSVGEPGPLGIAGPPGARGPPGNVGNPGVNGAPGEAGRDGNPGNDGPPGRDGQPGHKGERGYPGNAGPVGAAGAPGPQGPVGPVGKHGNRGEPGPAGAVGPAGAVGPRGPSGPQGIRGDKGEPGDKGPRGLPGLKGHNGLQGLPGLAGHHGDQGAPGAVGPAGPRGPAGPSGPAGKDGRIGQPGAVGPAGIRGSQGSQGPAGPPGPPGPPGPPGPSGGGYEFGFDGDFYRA

B1: biotinylated human plasma fibrinogen (natural protein)
chain 1: ADSGEGDFLAEGGGVRGPRVVERHQSACKDSDWPFCSDEDWNYKCPSGCRMKGLIDEVNQDFTNRINKLKNSLFEYQKNNKDSHSLTTNIMEILRGDFSSANNRDNTYNRVSEDLRSRIEVLKRKVIEKVQHIQLLQKNVRAQLVDMKRLEVDIDIKIRSCRGSCSRALAREVDLKDYEDQQKQLEQVIAKDLLPSRDRQHLPLIKMKPVPDLVPGNFKSQLQKVPPEWKALTDMPQMRMELERPGGNEITRGGSTSYGTGSETESPRNPSSAGSWNSGSSGPGSTGNRNPGSSGTGGTATWKPGSSGPGSTGSWNSGSSGTGSTGNQNPGSPRPGSTGTWNPGSSERGSAGHWTSESSVSGSTGQWHSESGSFRPDSPGSGNARPNNPDWGTFEEVSGNVSPGTRREYHTEKLVTSKGDKELRTGKEKVTSGSTTTTRRSCSKTVTKTVIGPDGHKEVTKEVVTSEDGSDCPEAMDLGTLSGIGTLDGFRHRHPDEAAFFDTASTGKTFPGFFSPMLGEFVSETESRGSESGIFTNTKESSSHHPGIAEFPSRGKSSSYSKQFTSSTSYNRGDSTFESKSYKMADEAGSEADHEGTHSTKRGHAKSRPV
chain 2: QGVNDNEEGFFSARGHRPLDKKREEAPSLRPAPPPISGGGYRARPAKAAATQKKVERKAPDAGGCLHADPDLGVLCPTGCQLQEALLQQERPIRNSVDELNNNVEAVSQTSSSSFQYMYLLKDLWQKRQKQVKDNENVVNEYSSELEKHQLYIDETVNSNIPTNLRVLRSILENLRSKIQKLESDVSAQMEYCRTPCTVSCNIPVVSGKECEEIIRKGGETSEMYLIQPDSSVKPYRVYCDMNTENGGWTVIQNRQDGSVDFGRKWDPYKQGFGNVATNTDGKNYCGLPGEYWLGNDKISQLTRMGPTELLIEMEDWKGDKVKAHYGGFTVQNEANKYQISVNKYRGTAGNALMDGASQLMGENRTMTIHNGMFFSTYDRDNDGWLTSDPRKQCSKEDGGGWWYNRCHAANPNGRYYWGGQYTWDMAKHGTDDGVVWMNWKGSWYSMRKMSMKIRPFFPQQ
chain 3: YVATRDNCCILDERFGSYCPTTCGIADFLSTYQTKVDKDLQSLEDILHQVENKTSEVKQLIKAIQLTYNPDESSKPNMIDAATLKSRKMLEEIMKYEASILTHDSSIRYLQEIYNSNNQKIVNLKEKVAQLEAQCQEPCKDTVQIHDITGKDCQDIANKGAKQSGLYFIKPLKANQQFLVYCEIDGSGNGWTVFQKRLDGSVDFKKNWIQYKEGFGHLSPTGTTEFWLGNEKIHLISTQSAIPYALRVELEDWNGRTSTADYAMFKVGPEADKYRLTYAYFAGGDAGDAFDGFDFGDDPSDKFFTSHNGMQFSTWDNDNDKFEGNCAEQDGSGWWMNKCHAGHLNGVYYQGGTYSKASTPNGYDNGIIWATWKTRWYSMKKTTMKIIPFNRLTIGEGQQHHLGGAKQAGDV
modifications: biotin (biotin N-hydroxysuccinimide ester; which chains and residues not stated) | biotin (biotin N-hydroxysuccinimide ester; which chains and residues not stated) | biotin (biotin N-hydroxysuccinimide ester; which chains and residues not stated)
Turning to B1, the EC50 (in general, the concentration needed to bring the measured effect to its halfway point) in experiment [1] was around 70 nM.

B2: human plasma fibrinogen (natural protein)
chain 1: ADSGEGDFLAEGGGVRGPRVVERHQSACKDSDWPFCSDEDWNYKCPSGCRMKGLIDEVNQDFTNRINKLKNSLFEYQKNNKDSHSLTTNIMEILRGDFSSANNRDNTYNRVSEDLRSRIEVLKRKVIEKVQHIQLLQKNVRAQLVDMKRLEVDIDIKIRSCRGSCSRALAREVDLKDYEDQQKQLEQVIAKDLLPSRDRQHLPLIKMKPVPDLVPGNFKSQLQKVPPEWKALTDMPQMRMELERPGGNEITRGGSTSYGTGSETESPRNPSSAGSWNSGSSGPGSTGNRNPGSSGTGGTATWKPGSSGPGSTGSWNSGSSGTGSTGNQNPGSPRPGSTGTWNPGSSERGSAGHWTSESSVSGSTGQWHSESGSFRPDSPGSGNARPNNPDWGTFEEVSGNVSPGTRREYHTEKLVTSKGDKELRTGKEKVTSGSTTTTRRSCSKTVTKTVIGPDGHKEVTKEVVTSEDGSDCPEAMDLGTLSGIGTLDGFRHRHPDEAAFFDTASTGKTFPGFFSPMLGEFVSETESRGSESGIFTNTKESSSHHPGIAEFPSRGKSSSYSKQFTSSTSYNRGDSTFESKSYKMADEAGSEADHEGTHSTKRGHAKSRPVRGIHTSPLGKPSLSP
chain 2: QGVNDNEEGFFSARGHRPLDKKREEAPSLRPAPPPISGGGYRARPAKAAATQKKVERKAPDAGGCLHADPDLGVLCPTGCQLQEALLQQERPIRNSVDELNNNVEAVSQTSSSSFQYMYLLKDLWQKRQKQVKDNENVVNEYSSELEKHQLYIDETVNSNIPTNLRVLRSILENLRSKIQKLESDVSAQMEYCRTPCTVSCNIPVVSGKECEEIIRKGGETSEMYLIQPDSSVKPYRVYCDMNTENGGWTVIQNRQDGSVDFGRKWDPYKQGFGNVATNTDGKNYCGLPGEYWLGNDKISQLTRMGPTELLIEMEDWKGDKVKAHYGGFTVQNEANKYQISVNKYRGTAGNALMDGASQLMGENRTMTIHNGMFFSTYDRDNDGWLTSDPRKQCSKEDGGGWWYNRCHAANPNGRYYWGGQYTWDMAKHGTDDGVVWMNWKGSWYSMRKMSMKIRPFFPQQ
chain 3: YVATRDNCCILDERFGSYCPTTCGIADFLSTYQTKVDKDLQSLEDILHQVENKTSEVKQLIKAIQLTYNPDESSKPNMIDAATLKSRKMLEEIMKYEASILTHDSSIRYLQEIYNSNNQKIVNLKEKVAQLEAQCQEPCKDTVQIHDITGKDCQDIANKGAKQSGLYFIKPLKANQQFLVYCEIDGSGNGWTVFQKRLDGSVDFKKNWIQYKEGFGHLSPTGTTEFWLGNEKIHLISTQSAIPYALRVELEDWNGRTSTADYAMFKVGPEADKYRLTYAYFAGGDAGDAFDGFDFGDDPSDKFFTSHNGMQFSTWDNDNDKFEGNCAEQDGSGWWMNKCHAGHLNGVYYQGGTYSKASTPNGYDNGIIWATWKTRWYSMKKTTMKIIPFNRLTIGEGQQHHLGGAKQAGDV
notes: fibrinogen Aα-chain, human, from plasma; fibrinogen Bβ-chain, human, from plasma; fibrinogen γ-chain, human, from plasma; In the gel contraction assays it was converted into fibrin by thrombin; also called unlabelled fibrinogen; non-biotinylated fibrinogen; source: bought: Sigma-Aldrich; copies: 2 + 2 + 2
For B2, the concentration for a half-maximal effect (EC50) in experiment [2] was around 10 nM.

For the origin of these results see publication PMC4109839, “Fibrin binds to collagen and provides a bridge for αVβ3 integrin-dependent contraction of collagen gels” (Biochemical Journal, 2014).
